For one test, the target named is endogenous mouse tau (mouse, UniProt P10637-2 2-430, limits assumed). As to the kind of experiment: Western blot of mouse brain extracts. The source says:
FIG. 3: Analysis of the novel mAbs on samples of transgenic mice and human brain. A) Western blot analysis of brain extracts from control mice (FVB), knock-out mice and transgenic (Tg) mice expressing a clinical mutant of human tau (Tau-P301L). The age of the mice is indicated between brackets. The arrow on the second blot indicates high molecular weight tau complexes. The antibodies used are ADx215 (YT1.15), ADx210 (YT1.10) and the commercial phosphorylation-specific antibody AT100 (exposure time of 30 min for ADx210 (YT1.10) and AT100, and 30 sec for ADx215 (YT1.15)). B) Tau epitope sequence recognized by ADx201 (YT1.1) and ADx215 (YT1.15). C) Western blot analysis of brain extracts from brain extracts obtained from a healthy person (non-AD) and an AD patient using the Mab ADx215 (YT1.15) (exposure time 2 min.). The brain regions from which the extracts were prepared are indicated. As control served brain extracts obtained from the hippocampus and cortex of the tau Tg mice Tau22. The arrow indicates high molecular weight tau complexes present in samples from AD brain. […]
Furthermore, the high affinity Mab ADx215 (YT1.15) specifically detected high molecular weight tau complexes in brain extracts of both Tg mice (Fig. A, C) and a late stage AD patient (data provided by L. Buée, Inserm U837, U. Lille, France; Fig. C).
On the technique in general: Immunoblotting shows a protein as a band on a membrane.

In test [1] the target is T1, recombinant HIS-tagged tau obtained from E. coli (UniProt P10636-8 1-441, limits assumed).
T1 construct: also called E. coli-produced recombinant tau; recombinant non-phosphorylated tau purified from bacteria
Put plainly: Western blot. The source says:
FIG. 2: Selectivity for tau aggregates and phosphorylation dependency of anti-tau mAbs of the invention. A) Western blot analysis of recombinant HIS-tagged tau obtained from E. coli and protein extracts obtained from control and humanized yeast strains using the commercial pan-tau antibody Tau-5 and ADx210 mAb as indicated. The number between brackets refers to the exposure time. The solid bar refers to high molecular weight and oligomeric tau and the small arrow in the picture of ADx210 to a presumable tau dimer. B) Western blot analysis of purified tau obtained from the pho85Δ strain before and after treatment with shrimp alkaline phosphatase (SAP) following different time intervals as indicated. Recombinant HIS-tagged tau obtained from E. coli served as control. The pan-tau antibody Tau-5, the phosphorylation-specific antibody AT270, and the antibody BT2 recognizing non-phosphorylated tau, were used in addition to the novel mAbs ADx215 and ADx210.
The phosphorylation specificity was initially tested on extracts obtained from the humanized wild type yeast strain and its congenic mds1Δ and pho85Δ mutants that display reduced and increased tau phosphorylation. Recombinant tau produced by E. coli served as control.

Consider two molecules from patent US20140161875A1 (KATHOLIEKE UNIVERSITEIT LEUVEN, published 2014).

endogenous mouse tau, sequence (P10637 other isoform, or with tags, fused parts or gaps limits assumed): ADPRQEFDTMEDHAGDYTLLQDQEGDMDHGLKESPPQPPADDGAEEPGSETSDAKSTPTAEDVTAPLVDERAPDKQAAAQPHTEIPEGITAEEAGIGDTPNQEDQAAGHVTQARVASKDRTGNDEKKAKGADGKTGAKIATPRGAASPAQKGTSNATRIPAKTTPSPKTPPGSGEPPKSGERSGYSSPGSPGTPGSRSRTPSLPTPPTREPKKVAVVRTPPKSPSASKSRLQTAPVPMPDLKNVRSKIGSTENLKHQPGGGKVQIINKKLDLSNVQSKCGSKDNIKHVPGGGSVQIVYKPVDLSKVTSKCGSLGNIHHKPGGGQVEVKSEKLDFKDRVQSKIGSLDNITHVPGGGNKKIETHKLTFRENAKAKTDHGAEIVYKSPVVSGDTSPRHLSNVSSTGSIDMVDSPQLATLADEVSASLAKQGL

B1: ADx215 monoclonal antibody (hybridoma LMBP 9679CB) (antibody, IgG1, V domains shown)
VH: EVQLVESGGDLVKPGGSLKLSCAASGFNFRSYGMSWVRQTPDKRLEWVATISSGGNYTYYPDSVKGRFTISRDNAKNILYLQMSSLNSEDTALYYCTYSFYGAFDYWGQGTTLTVSS
VL: DVLMTQTPLSLPVSLGDQASISCRSSQNILHSNGNTYLEWYLQKPGQSPKLLIYKVSSRFSGVPDRFSGSGSGTDFTLKITRVEAEDLGVYYCFQGSLVPWTFGGGTKLEIRR
notes: also called YT1.15
Turning to B1, the binding result with endogenous mouse tau is listed as “no binding”.

B2: ADx210 monoclonal antibody (hybridoma LMBP 8347CB) (antibody, V domains shown)
VH: VQLQESGGGLVQPGGSRKLSCAASGFTFSNFGMHWVRQAPDKGLEWVAYITSGSSSIYYADTVKGRFTISRDNPKNTLFLQMTSLRSEDTAMYYCARSVPYGYGLFDYWGRGTTLTVSS
VL: DVLMTQIPVSLSVSLGDQASISCRSSESIVHSSGKTYLEWYLQKPGQSPKLLIYEVSNRFSGVPDRFSGSGSGTDFTLKISRVEAEDLGVYYCFQGSHVPWTFGGGTKLEIKR
notes: Mouse hybridoma mAb (BALB/C immunised with yeast-purified tau); constant regions are not; also called YT1.10; IGH-593
With B2, the binding result (in test [1]; with endogenous mouse tau) was “no binding” each time.
